In patent publication EP1438388B1 one finds binding sites/cell (binding sites/cell) and Kd data, which are given here for 1 substance.

In experiment [1] the target is putative IBC-1 receptor on G361 melanoma cells, lower affinity binding site (human). In words: Scatchard analysis of AP-IBC-1 binding to G361 melanoma cells; lower affinity slope.
Experiment [2] deals with putative IBC-1 receptor on G361 melanoma cells, moderately high affinity binding site (human). As to the kind of experiment: Scatchard analysis of AP-IBC-1 binding to G361 melanoma cells; moderately high affinity slope.
Experiment [3] concerns the target putative IBC-1 receptor on G361 melanoma cells, lower affinity binding site (human). In words: Scatchard analysis of AP-IBC-1 binding to G361 melanoma cells, bound AP activity; lower affinity slope.
For experiment [4], the target named is putative IBC-1 receptor on G361 melanoma cells, moderately high affinity binding site (human). As to the kind of experiment: Scatchard analysis of AP-IBC-1 binding to G361 melanoma cells, bound AP activity; moderately high affinity slope.

A word on the Kd: it is a measure of binding affinity in units of concentration. Lower therefore signals a tighter complex. As for “alkaline phosphatase-IBC-1 fusion protein (from UniProt P81605 20-110) (ligand)”, the results for the binding sites/cell (binding sites/cell) in experiment [1] and in experiment [2] were 350000 and 17000, respectively. Moreover, the Kd in experiment [3] came out at 360 nM; in experiment [4] it was 37.5 nM.
